Measured values published in patent US20230357429A1 (JANUX THERAPEUTICS, published 2023).
Where no end group is shown, it is not given here.

B1: TCE-22 (anti-CD3 scFv W112A; anti-TROP2 wt) (bispecific antibody)
light: DIQLTQSPSSLSASVGDRVSITCKASQDVSIAVAWYQQKPGKAPKLLIYSASYRYTGVPDRFSGSGSGTDFTLTISSLQPEDFAVYYCQQHYITPLTFGAGTKVEIKRTVAAPSVFIFPPSDEQLKSGTASVVCLLNNFYPREAKVQWKVDNALQSGNSQESVTEQDSKDSTYSLSSTLTLSKADYEKHKVYACEVTHQGLSSPVTKSFNRGEC
heavy: not shown
notes: scFv on the Fab heavy chain; also called TCE-22 (W112A)
B3: Peptide-70 (peptide)
peptide: YLCGPDGDETLACY
modifications: cysteine pairing not given here; also: biotinylated, site not given here
notes: mask peptide for the CD3 scFv

Key:
[1] = biological target: T1, CD3 (biotinylated CD3 antigen) (human, UniProt P07766 23-126, limits assumed, biotinylated (site not stated)); experiment: ELISA, TCE on captured biotin-CD3
T1 construct: also called CD3ε; human CD3

Peptide-71 = biological target: T2, Peptide-71 (cysteine pairing not given here; also: biotinylated, site not given here); experiment: ELISA, TCE on captured biotin-peptide
T2 construct: mask peptide for the CD3 scFv
T2 peptide: VDCGPDGDESILCY

Peptide-75 = biological target: T3, Peptide-75 (cysteine pairing not given here; also: biotinylated, site not given here); experiment: ELISA, TCE on captured biotin-peptide
T3 construct: mask peptide for the CD3 scFv
T3 peptide: GSACLGPEWEVCPY

Peptide-67 = biological target: T4, Peptide-67 (cysteine pairing not given here; also: biotinylated, site not given here); experiment: ELISA, TCE on captured biotin-peptide
T4 construct: mask peptide for the CD3 scFv
T4 peptide: VYCGPEFDESVGCM

Peptide-70 = biological target: B3; experiment: ELISA, TCE on captured biotin-peptide
Peptide-74 = biological target: T5, Peptide-74 (cysteine pairing not given here; also: biotinylated, site not given here); experiment: ELISA, TCE on captured biotin-peptide
T5 construct: mask peptide for the CD3 scFv
T5 peptide: ASQCLGPEWEVCPY

Peptide-68 = biological target: T6, Peptide-68 (cysteine pairing not given here; also: biotinylated, site not given here); experiment: ELISA, TCE on captured biotin-peptide
T6 construct: mask peptide for the CD3 scFv
T6 peptide: DWCWYSPDNDGLCD

Peptide-66 = biological target: T7, Peptide-66 (cysteine pairing not given here; also: biotinylated, site not given here); experiment: ELISA, TCE on captured biotin-peptide
T7 construct: mask peptide for the CD3 scFv
T7 peptide: GSQCLGPEWEVCPY

Peptide-73 = biological target: T8, Peptide-73 (cysteine pairing not given here; also: biotinylated, site not given here); experiment: ELISA, TCE on captured biotin-peptide
T8 construct: mask peptide for the CD3 scFv
T8 peptide: VYCGPEFDESVGCA

Peptide-72 = biological target: T9, Peptide-72 (cysteine pairing not given here; also: biotinylated, site not given here); experiment: ELISA, TCE on captured biotin-peptide
T9 construct: mask peptide for the CD3 scFv
T9 peptide: AYCGPEFDESVGCM

Peptide-65 = biological target: T10, Peptide-65 (cysteine pairing not given here; also: biotinylated, site not given here); experiment: ELISA, TCE on captured biotin-peptide
T10 construct: mask peptide for the CD3 scFv
T10 peptide: QGCGTIADPEPHCW

Peptide-69 = biological target: T11, Peptide-69 (cysteine pairing not given here; also: biotinylated, site not given here); experiment: ELISA, TCE on captured biotin-peptide
T11 construct: mask peptide for the CD3 scFv
T11 peptide: SECLVDLQSDPCYW

[2] = biological target: T12, TCE-1 (anti-CD3 scFv wt; anti-TROP2 Fab wt); experiment: competition ELISA: peptide titrated and pre-incubated with a constant concentration of TCE-1, binding of TCE-1 to plate-bound biotinylated CD3 detected
T12 construct: anti-CD3 scFv fused to the N-terminus of the anti-TROP2 Fab heavy chain; also called TCE-1 (wt)

[3] = biological target: T13, TCE-38 (anti-CD3 scFv F240A; anti-TROP2 F108A); experiment: competition ELISA, TCE on captured CD3
T13 construct: scFv on the Fab heavy chain

[4] = biological target: T14, TCE-36 (anti-CD3 scFv H101A; anti-TROP2 F108A); experiment: competition ELISA, TCE on captured CD3
T14 construct: scFv on the Fab heavy chain

[5] = biological target: T15, TCE-13 (anti-CD3 scFv N103A; anti-TROP2 wt); experiment: competition ELISA, TCE on captured CD3
T15 construct: scFv on the Fab heavy chain; also called TCE-13 (N103A)

[6] = biological target: T16, TCE-20 (anti-CD3 scFv S110A; anti-TROP2 wt); experiment: competition ELISA, TCE on captured CD3
T16 construct: scFv on the Fab heavy chain; also called TCE-20 (S110A)

[7] = biological target: T17, TCE-14 (anti-CD3 scFv F104A; anti-TROP2 wt); experiment: competition ELISA, TCE on captured CD3
T17 construct: scFv on the Fab heavy chain; also called TCE-14 (F104A)

[8] = biological target: T18, TCE-10 (anti-CD3 scFv R100A; anti-TROP2 wt); experiment: competition ELISA, TCE on captured CD3
T18 construct: scFv on the Fab heavy chain; also called TCE-10 (R100A)

[9] = biological target: T19, TCE-26 (anti-CD3 scFv W233A; anti-TROP2 HC wt); experiment: competition ELISA, TCE on captured CD3
T19 construct: scFv on the Fab heavy chain; also called TCE-26 (W233A)

[10] = biological target: T20, TCE-31 (anti-CD3 scFv W238A; anti-TROP2 wt); experiment: competition ELISA, TCE on captured CD3
T20 construct: scFv on the Fab heavy chain; also called TCE-31 (W238A)

[11] = biological target: B1; experiment: competition ELISA, TCE on captured CD3
[12] = biological target: T21, TCE-39 (anti-CD3 scFv P41S, A49G, N87S, L150F, T151S, G163R, P175A, K181T, T200V, A202D, L208I, G211N, L217I, …); experiment: competition ELISA, TCE on captured CD3
T21 construct: scFv on the Fab heavy chain

[13] = biological target: T22, TCE-37 (anti-CD3 scFv F104A; anti-TROP2 F108A); experiment: competition ELISA, TCE on captured CD3
T22 construct: scFv on the Fab heavy chain

[14] = biological target: T23, TCE-7 (anti-CD3 scFv wt; anti-TROP2 F108A); experiment: competition ELISA, TCE on captured CD3
T23 construct: scFv on the Fab heavy chain

An EC50 [1] of 0.95 nM, an EC50 (Peptide-71) of 4.87 nM and an EC50 (Peptide-75) of 38.2 nM were found for B1 in this work. It also gave an EC50 (Peptide-67) of 10.5 nM, an EC50 (Peptide-70) of 0.59 nM and an EC50 (Peptide-74) of 23.4 nM. For the same binder, the EC50 (Peptide-68) was 794 nM, the EC50 (Peptide-66) was 26.4 nM and the EC50 (Peptide-73) was 12.2 nM. For the same binder, the EC50 (Peptide-72) was 11.2 nM and the EC50 (Peptide-65) was 220 nM.

B2: TCE-21 (anti-CD3 scFv Y111A; anti-TROP2 wt) (bispecific antibody)
light: DIQLTQSPSSLSASVGDRVSITCKASQDVSIAVAWYQQKPGKAPKLLIYSASYRYTGVPDRFSGSGSGTDFTLTISSLQPEDFAVYYCQQHYITPLTFGAGTKVEIKRTVAAPSVFIFPPSDEQLKSGTASVVCLLNNFYPREAKVQWKVDNALQSGNSQESVTEQDSKDSTYSLSSTLTLSKADYEKHKVYACEVTHQGLSSPVTKSFNRGEC
heavy: not shown
notes: scFv on the Fab heavy chain; also called TCE-21 (Y111A)
An EC50 [1] of 592 nM, an EC50 (Peptide-71) of 106 nM and an EC50 (Peptide-75) of 95.6 nM were found for B2 in this work. For the same binder, the EC50 (Peptide-67) was 77.7 nM, the EC50 (Peptide-70) was 11.9 nM and the EC50 (Peptide-74) was 64.2 nM. The EC50 (Peptide-69) was 572 nM, the EC50 (Peptide-68) was 381 nM and the EC50 (Peptide-66) was 49.1 nM. The EC50 (Peptide-72) was 76.9 nM and the EC50 (Peptide-65) was 1080 nM.

B3 was tested, and the “IC50 (read off the curve)” value [2] was about 10 nM, the IC50 [3] was 140 nM and the IC50 [4] was 80 nM. For the same binder, the IC50 [5] was 2110 nM, the IC50 [6] was 370 nM and the IC50 [7] was 180 nM. It also gave an IC50 [8] of 240 nM, an IC50 [9] of 5000 nM and an IC50 [10] of 43500 nM. It also gave an IC50 [11] of 470 nM.

An IC50 [12] of 2790 nM, an IC50 [13] of 950 nM and an IC50 [14] of 17500 nM were found for YLCGPDADETLACY (cysteine pairing not given here; also: biotinylated, site not given here, mask peptide for the CD3 scFv) [Peptide-76] in this work.
